Laboratory results published in article PMC11228049.

How the values were obtained:
untagged βarr2 [1] = biological target: untagged βarr2 (UniProt P29067); experiment: ITC; βarr1 (15 μM) or βarr2 (20 μM) in the sample cell, 400 μM Gβγ C68S in the syringe; 25 °C; 20 mM HEPES, 150 mM NaCl, 0.02% DDM, pH 7.4; an additional early binding site was excluded, the rest fitted to a one-site model
untagged βarr2 [2] = biological target: untagged βarr2 (UniProt P29067); experiment: ITC; βarr form in the sample cell, WT Gβγ in the syringe; 25 °C; 20 mM HEPES, 150 mM NaCl, 0.02% DDM, pH 7.4; one-site model
βarr2 in excess V2Rpp = βarr2 in excess V2Rpp (UniProt P29067); experiment: as above

Sequence of UniProt P29067 (P29067 whole entry): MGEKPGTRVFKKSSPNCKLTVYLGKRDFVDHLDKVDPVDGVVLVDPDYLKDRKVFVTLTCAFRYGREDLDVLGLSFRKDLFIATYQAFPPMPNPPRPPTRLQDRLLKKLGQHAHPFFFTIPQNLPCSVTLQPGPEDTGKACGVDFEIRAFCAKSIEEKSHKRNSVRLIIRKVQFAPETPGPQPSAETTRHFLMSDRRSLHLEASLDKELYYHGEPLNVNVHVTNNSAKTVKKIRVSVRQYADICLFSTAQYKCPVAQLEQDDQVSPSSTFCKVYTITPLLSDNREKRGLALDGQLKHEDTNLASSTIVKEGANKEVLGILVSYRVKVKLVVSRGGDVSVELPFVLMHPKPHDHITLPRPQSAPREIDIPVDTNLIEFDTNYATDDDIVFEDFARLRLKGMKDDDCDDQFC

Kd (untagged βarr2 [1])	Kd (untagged βarr2 [2])	stoichiometry N (untagged βarr2 [2])	Kd (βarr2 in excess V2Rpp)	stoichiometry N (βarr2 in excess V2Rpp)	Substance
900 nM					Gβ1γ2 with a C68S mutation in Gγ2 (from UniProt P62873 1-340; P59768 1-71) (complex)
	1500 nM	1 site	1800 nM	1 site	recombinant purified WT Gβ1γ2 (from UniProt P62873 1-340; P59768 1-71) (complex)
